In US5348941A, “Stabilizers for fibroblast growth factors” (Merck & Co., Inc., priority 1992, dated 1994):

Key:
Type in all cases: biochemical
[1] = biological target: T1, aFGF (Homo sapiens, UniProt P05230); experiment: Thermal denaturation (Tm) of aFGF by fluorescence spectroscopy; conditions: no heparin, PBS pH 7.2
T1 construct: The recombinant derived, 140 amino add form is the preferred form of aFGF; N-terminal methionine (MetHaFGF); made in house; host or cells: microbial cells (preferred embodiment)
Method: Fluorescence spectra are obtained with a Spex Fluorolog-2 spectrofiuorometer using a 1 mm pathlength cuvette. Band passes from 1-2 nm are employed with sample absorptivities maintained below 0.1 at 280 nm. The temperature is controlled either manually or automatically as described above. Reproducibility of thermal denaturation temperatures (Tm) is ± 2° C.
To more directly ascertain the effect of heparin on aFGF stability, the temperature-induced denaturation of aFGF as a function of heparin concentration was monitored by fluorescence spectroscopy. Fluorescence spectra were obtained with a Spex Fluorolog-2 spectrofiuorometer using a 1 mm pathlength cuvette. Band passes from 1-2 nm were employed with sample absorptivities maintained below 0.1 at 280 nm. The temperature was controlled either manually or automatically as described above. Reproducibility of thermal denaturation temperatures (Tm) was ±2° C. […] Experiments were carried out at 100 μg/ml protein (6.3 μM) in a PBS buffer at pH 7.2. Curve drawn through data points for clarity only.
Studies of the stabilization of aFGF by heparin are difficult to interpret because of the inherent heterogeneity of heparin preparations, Lane and Lindahl, Eds. Heparin, Chemical and Biological Properties, Clinical Applications, Edward Arnold, London (1989); Jackson, et al., Physiol. Rev. 71: 481-539 (1991). In order to better understand the polyanionic stabilization of aFGF, a series of well-defined fragments of heparin were examined for their ability to stabilize aFGF against thermal denaturation. These enzymatically prepared and purified fragments varied in size from a disaccharide to a decasaccharide. Each fragment was incubated with aFGF at a 1:1 weight ratio in a PBS buffer. The sample was then stressed by temperature and structural changes in aFGF were monitored by both circular dichroism and fluorescence spectroscopy. […] All samples contained 100 μg/ml aFGF (6.3 μM)in a PBS buffer (pH 7.2) with 100 μg/ml of each heparin fragment.
Since these fragments of heparin have a well-defined molecular weight, the molar ratio of aFGF to ligand during these thermal denaturation experiments can be calculated. The Tm of aFGF as a function of the molar concentration of the hexasaccharide was measured by fluorescence spectroscopy. Fluorescence spectra were obtained with a Spex Fluorolog-2 spectrofiuorometer using a 1mm pathlength cuvette. Band passes from 1-2 nm were employed with sample absorptivities maintained below 0.1 at 280 nm. The temperature was controlled either manually or automatically as described above. Reproducibility of thermal denaturation temperatures (Tm) was ±2° C.
Analogous to the heparin experiments illustrated in Example 1 (FIG. 3), aFGF thermal stability was monitored by fluorescence spectroscopy as a function of concentration for several other of the polyanions. […] All samples contained 100 μg/ml of aFGF (6.3 μM) in a PBS buffer at pH 7.2.

[2] = biological target: T1, aFGF; experiment: Thermal denaturation (Tm) of aFGF by circular dichroism; conditions: buffer alone
Method: Circular Dichroism (CD) spectra are measured with an AVIV 62 DS spectropolarimeter. Samples of aFGF at about 100 μg/ml in a PBS buffer (6 mM sodium phosphate, 120 mM NaCl, pH 7.2) containing various ligands are placed into 1 mm pathlength cells and the cell temperature is controlled by circulating a water/ethylene glycol mixture through the cell holder. Thermal denaturation is carded out under computer control by increasing the temperature of the water bath in 2° C. increments, followed by a two-minute equilibration period at each temperature to allow the sample to reach thermal equilibrium. Reproducibility of the midpoint of these temperature melting curves (Tm) is ±2° C.
The maximum Tm values induced by 12 different ligands as determined by circular dichroism measurements at 228 nm are summarized in the first column of Table II. All of these ligands stabilize aFGF by 15°-25° C. in a manner similar to that originally observed with heparin. […] Furthermore, sulfate unions are found near analogous residues in the crystal structure of basic FGF, Eriksson et al., Proc. Natl. Acad. Sd. USA 88:3441-3445 (1991); Zhang et al., Proc. Natl. Acad. Sci. USA 88:3446-3450 (1991). Consequently, it seemed important to examine the ability of these ligands to stabilize aFGF during thermal denaturation as monitored by both fluorescence and circular dichroism. The Tm value of aFGF increased from 27° C. to 43° C. (fluorescence)and 45° C. to 51° C. (CD) when a 100 molar excess (3X by weight) of (IrCl6)^-3 was present. Similarly, sulfate union (120 mM) produced a species that was even more dramatically stabilized, melting at 57° C. (CD).
^(a) Thermal melting temperatures were measured by circular dichroism
Samples contained […] aFGF in PBS buffer pH 7.2 with excess ligand
(1-3× by weight except for 120 mM sodium sulfate and 10 mM

[3] = biological target: T1, aFGF; experiment: Copper-catalyzed oxidation of aFGF thiol groups
Method: Copper-catalyzed oxidation of aFGF is carried out in the following manner. Acidic FGF (about 80 μg/ml) is incubated in a 20 mM Tris, 0.15M potassium chloride, pH 8 solution containing about 20 μM cuptic chloride for varying periods of time at room temperature. The reaction was terminated by the addition of 100 mM EDTA in the same buffer. A solution of about 0.7 ml of 0.25M Tris (about pH 8) containing about 2 mM EDTA and about 7 M GuHC1 is then added followed by about 35 μl of 4 mg/ml of DTNB (Sigma). Samples were incubated for 30 minutes, filtered through a 0.22 micron filter and the optical density measured at about 412 nm to determine sulfhydryl content, Riddles et al., Meth. Enzymol. 9:49-60 (1983). Relative standard deviation of the obtained values during time course experiments is 12%.
Acidic FGF contains three free cysteine residues at positions […], 83 and 117 in the polypeptide chain. […] It has also been shown that the copper catalyzed oxidative formation of a disulfide bond in the wild-type aFGF inactivates the protein in an in vitro mitogenic assay, Ortega et al., J. Biol. Chem. 266:5842-5846 (1991). Therefore, it was of interest to determine the extent to which heparin can stabilize aFGF against inactivation by oxidation. […] Samples contained 80 μg/ml aFGF with (a) 3X heparin by weight, (b) 0.1X heparin by weight and (c) buffer alone. As heparin was introduced and its concentration increased, the rate of copper-catalyzed oxidation decreased. For example, after 20 minutes, greater than 95% of the cysteine residues of aFGF are protected from oxidation with 3X heparin. FIG. 4B illustrates the fraction of remaining reactive thiol groups after a 10-minute incubation with cupric chloride as a function of heparin concentration.
Some aggregation of aFGF occurs under the conditions of these experiments presumably due to at least partial intermolecular disulfide formation. Thus, these measurements could simply be a measurement of the loss of solubility induced by copper association with aFGF. Several experiments, however, argue against this possibility. First, previous work has shown that at dilute protein concentration, copper does indeed catalyze oxidation of thiol groups of aFGF, Ortega et al., J. Biol. Chem. 266:5842-5846 (199 1 ). Second, as a control experiment, the copper-catalyzed oxidation of aFGF was carded out in a buffer containing 6 M GuHCl. Under these denaturing conditions, nearly 100% of the thiol groups in solution were lost after 10 minutes without visible aggregation. […] Regardless of the precise mechanism, copper addition is a distinct mechanism of inactivation compared to thermal stress.
Similar protection against oxidation experiments were carried out with other negatively charged compounds with an excess of ligand (3X by weight except for sodium sulfate at 120 mM and tetrapolyphosphate at 10 mM) added to aFGF before copper catalyzed oxidation. As shown in the second column of Table 2, all of these agents at least partially protect the cysteine residues of aFGF from oxidation.
^(b) Percentage of aFGF thiols remaining in solution after 10 min
incubation with cupric chloride. Experimental conditions are described in
FIG. 10. All samples contained ligand at 3× (by weight) except
sodium sulfate (120 mM) and tetrapolyphosphate (10 mM).

[4] = biological target: T1, aFGF; experiment: Copper-catalyzed oxidation of aFGF thiol groups; conditions: 6 M GuHCl, 10 minutes, 1 μM CuCl2, 5 μM aFGF

T1 sequence (P05230 16-155 limits assumed): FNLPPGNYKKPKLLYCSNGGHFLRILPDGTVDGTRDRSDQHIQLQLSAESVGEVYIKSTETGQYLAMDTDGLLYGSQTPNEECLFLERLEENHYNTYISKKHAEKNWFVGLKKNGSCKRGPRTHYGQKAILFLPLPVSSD

aFGF: human acidic fibroblast growth factor, molecular mass of about 15.9 kDa
thermal denaturation temperature (Tm) of aFGF, fluorescence [1]: 27 °C
thermal denaturation temperature (Tm) of aFGF, fluorescence ([1]; listed as native aFGF): < 30 °C
Tm of aFGF, circular dichroism [2]: 45 °C
thiol groups of aFGF lost ([3]; 6 M GuHCl, 10 minutes): ~100%
free thiols of aFGF lost ([3]; 10-minute incubation, absence of polyanions): 60%
total thiol groups of aFGF reacted ([3]; buffer alone, after 6 hours, cupric chloride): 70-75%
thiol groups of aFGF oxidized ([3]; buffer alone, within several minutes, cupric chloride): 50-60%
loss of thiol groups of aFGF [4]: 10%
